The text below walks through data of patent US20090111753A1, “Nogo-A Polypeptide Fragments, Variant Nogo Receptor-1 Polypeptides, and Uses Thereof” (Yale University, priority 2004, published 2009).

Test [1] deals with T1, AP-Lingo-1 (Homo sapiens, UniProt Q96FE5).
T1 construct: made in house; NgR mutants: COS-7
T1 sequence (Q96FE5 40-538 limits assumed): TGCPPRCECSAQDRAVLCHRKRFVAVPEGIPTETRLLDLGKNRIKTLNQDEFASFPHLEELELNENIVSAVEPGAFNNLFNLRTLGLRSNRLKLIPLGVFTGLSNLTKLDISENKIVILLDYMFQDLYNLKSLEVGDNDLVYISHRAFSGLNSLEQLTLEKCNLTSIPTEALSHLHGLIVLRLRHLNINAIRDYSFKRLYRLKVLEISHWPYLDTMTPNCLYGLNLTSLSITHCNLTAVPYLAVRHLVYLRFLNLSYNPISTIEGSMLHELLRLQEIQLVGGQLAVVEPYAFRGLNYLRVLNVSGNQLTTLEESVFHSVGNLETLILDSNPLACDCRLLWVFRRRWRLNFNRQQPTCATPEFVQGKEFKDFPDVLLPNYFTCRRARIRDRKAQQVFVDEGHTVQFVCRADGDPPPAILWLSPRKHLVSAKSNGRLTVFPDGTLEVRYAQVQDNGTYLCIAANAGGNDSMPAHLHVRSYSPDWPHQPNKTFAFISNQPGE
The test is described as follows: Binding of AP-Lingo-1 to COS-7 cells expressing NgR mutants. More on the design: key: ++: WT level; +: weaker than wild type; trace binding; −: no binding. The following applies: AP-Lingo-1 10 nM; level of binding compared to wild type NgR. The procedure:
(§1) FIG. 4A. […] Binding of AP or AP fused NgR ligands to COS-7 cells expressing different NgR mutants as indicated. The concentrations of ligands applied were: AP, 30 nM; AP-Ng66, 5 nM; AP-Ng33, 10 nM; AP-B4C, 10 nM; AP-B4C66, 0.5 nM; AP-Lingo-1, 10 nM; AP-OMGP, 10 nM; AP-MAG, 30 nM. These concentrations are close to the binding Kd of these proteins to NgR so that any […] is reflected linearly in staining.
(§2) FIG. 4B. AP binding of NgR ligands to NgR mutants expressed as percentage of wild type NgR. AP after incubation with AP fused ligands, AP bound to COS-7 cells expressing NgR or NgR mutants were stained and measured.
(§3) To better define how multiple ligands bind to the NgR protein, we examined a series of Ala-substituted NgR for ligand binding activity. NgR mutagenesis was done using the Quick Change Multisite Directed Mutagenesis Kit (Stratagene catalog #200514). Human NgR1 was used as a template. Ala substitutions were generated for each of the charged residues predicted to be solvent accessible at the surface of the ligand binding domain of NgR (Barton, W. A., et al., Embo J. 22:3291-3302 (2003); He, X. L., et al., Neuron 38:177-185 (2003)). We generated mutants in which 1-8 surface residues localized within 5 A of one another were Ala-substituted. Because of the coiling nature of the LRR structure, as residues juxtaposed on the protein surface are commonly separated by approximately 25 residues in the primary structure. In addition to mutations in specific charged surface patches, other mutations were targeted to glycosylation sites and to regions predicted to be involved in ligand binding based on the NgR structure (Barton, W. A., et al., Embo J. 22:3291-3302 (2003); He, X. L., et al., Neuron 38:177-185 (2003)). In addition, a variant corresponding to a human polymorphism was examined (D259N). None of the mutations altered the Leu residues that define the LRR structure itself or the Cys residues critical in the amino and carboxyl terminal capping domains. The vast majority of such Ala surface substitution mutants were expressed as immunoreactive polypeptides with a molecular weight and an expression level indistinguishable from wild type NgR (FIG. 4C and data not shown).
(§4) This collection of 74 individual NgR mutants was interrogated for AP-Nogo-66, AP-Amino-Nogo-B4C, AP-MAG, AP-OMgp, and AP-Lingo-1 binding. AP-Nogo66, AP-MAG, AP-OMGP and AP-Lingo-1 constructs are described elsewhere (Fournier, A. E., et al., Nature 409:341-346 (2001); Liu, B. P., et al., Science 297:1190-1193 (2002); Mi, S., et al., Nat. Neurosci. 7:221-228 (2004); Wang, K. C., et al., Nature 417:941-944 (2002b)). The properties of the NgR mutants fell into one of three major categories (Table II and FIG. 5). A number of Ala substituted NgR polypeptides bound all of the ligands at wild type levels. […] In addition, a significant extent of the concave surface is dispensable for ligand binding.
(§5) Binding of Alanine substituted NgR mutants to NgR ligands were compared to wild type NgR and the levels of binding were categorized as ++ (WT level), + (weaker than wild type), tr (trace binding), − (no binding), N/A (not determined). NgR mutant proteins were also subjected to SDS-PAGE and probed by anti-NgR antibodies. Mutants with expression level similar to WT NgR were labeled as “y”.

In test [2] the test system is AP-MAG. The test can be described thus: Binding of AP-MAG to COS-7 cells expressing NgR mutants. Also on record: key: ++: WT level; +: weaker than wild type; trace binding; −: no binding. The following applies: AP-MAG 30 nM; level of binding compared to wild type NgR. On the procedure: as §1, §2, §3, §4, §5
Test [3] has as its system NgR ligands. The test is described as follows: Binding of alanine substituted NgR mutants to NgR ligands, summary categories. The following applies: AP-Nogo66, AP-B4C, AP-B4C66, AP-Lingo-1, AP-OMgp and AP-MAG; compared to wild type NgR.
Excerpt: as §3, §4
Alanine substituted NgR mutants were tested for their binding to AP-Nogo66, AP-B4C, AP-B4C66, AP-Lingo-1, AP-OMgp and AP-MAG and they fall into three categories: (1) Mutants that lose binding to all NgR ligands. (2) Mutants that still maintain binding to all NgR ligands. […] The D259N mutant is an asparagine substitution to mimic a human polymorphism.

In test [4] the test system is AP-OMgp. The test is described as follows: Binding of AP-OMgp to COS-7 cells expressing NgR mutants. The following applies: AP-OMGP 10 nM; level of binding compared to wild type NgR. Also on record: key: ++: WT level; +: weaker than wild type; trace binding; −: no binding. On the procedure:
as §1, §2, §3, §4, §5

Test [5] addresses T2, AP-Nogo66 (Homo sapiens, UniProt Q9NQC3).
T2 construct: made in house; NgR mutants: COS-7
T2 sequence (Q9NQC3 1055-1120 limits assumed): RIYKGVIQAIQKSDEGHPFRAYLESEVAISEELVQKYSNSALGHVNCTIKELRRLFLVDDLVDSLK
The test can be described thus: Binding of AP-Nogo66 to COS-7 cells expressing NgR mutants. More on the design: key: ++: WT level; +: weaker than wild type; trace binding; −: no binding. The following applies: AP-Ng66 5 nM; level of binding compared to wild type NgR. On the procedure:
as §1, §2, §3, §4, §5

Test [6] relates to AP-B4C66. The test can be described thus: Binding of AP-B4C66 to COS-7 cells expressing NgR mutants. More on the design: key: ++: WT level; +: weaker than wild type; trace binding; −: no binding. The following applies: AP-B4C66 0.5 nM; level of binding compared to wild type NgR. The procedure: as §1, §2, §3, §4, §5
Test [7] deals with T3, AP-B4C (Homo sapiens, UniProt Q9NQC3).
T3 construct: a.a; 950-1018 (AmNg B4C); made in house; host or cells: AP ligand: HEK293T conditioned medium; NgR mutants: COS-7
T3 sequence (Q9NQC3 950-1018): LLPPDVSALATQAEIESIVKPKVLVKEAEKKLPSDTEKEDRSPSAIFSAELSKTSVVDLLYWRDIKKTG
The test can be described thus: Binding of AP-B4C to COS-7 cells expressing NgR mutants. The following applies: AP-B4C 10 nM; level of binding compared to wild type NgR. Also on record: key: ++: WT level; +: weaker than wild type; trace binding; −: no binding. The procedure: as §1, §2, §3, §4, §5

B1: 36, 38, 61: human NgR1 mutant, listed residues mutated to alanine (protein)
chain: CPGACVCYNAPAVTTSCPQQGLQAVPVGIPAASQAIFLHGNRISHVPAASFRACRNLTILWLHSNVLARIDAAAFTGLALLEQLDLSDNAQLRSVDPATFHGLGRLHTLHLDRCGLQELGPGLFRGLAALQYLYLQDNALQALPDDTFRDLGNLTHLFLHGNRISSVPERAFRGLHSLDRLLLHQNRVAHVHPHAFRDLGRLMTLYLFANNLSALPTEALAPLRALQYLRLNDNPWVCDCRARPLWAWLQKFRGSSSEVPCSLPQRLAGRDLKRLAANDLQGCAVATGPYHPIWTGRATDEEPLGLPKCCQPDAADKASVLEPGRPASAGNALKGRVPPGDSPPGNGSGPRHINDSPFGTLPGSAEPPLTAVRPEGSEPPGFPTSGPRRRPGCSRKNRTRSHCRLGQAGSGGGGTGDSEGSGALPSLTCSLTPLGLALVLWTVLGPC
For the molecule B1, the Lingo-1 entry in test [1] is “tr”. Besides, the MAG entry in test [2] is “tr”. In addition, the “ligand binding category of NgR mutant (Table II)” value (shortened to “ligand binding category”) in test [3] was “Differential binding”. For the same molecule, the OMgp entry in test [4] is recorded as “+”. For the same molecule, the Ng66 result in test [5] is given as “+”. In test [6], the B4C-66 result is on record as “++”. The B4C result in test [7] is “++”.

B2: 114, 117, 139: human NgR1 mutant, listed residues mutated to alanine (protein)
chain: CPGACVCYNEPKVTTSCPQQGLQAVPVGIPAASQRIFLHGNRISHVPAASFRACRNLTILWLHSNVLARIDAAAFTGLALLEQLDLSANAALRSVDPATFHGLGRLHTLHLDACGLQELGPGLFRGLAALQYLYLQDNALQALPDDTFRDLGNLTHLFLHGNRISSVPERAFRGLHSLDRLLLHQNRVAHVHPHAFRDLGRLMTLYLFANNLSALPTEALAPLRALQYLRLNDNPWVCDCRARPLWAWLQKFRGSSSEVPCSLPQRLAGRDLKRLAANDLQGCAVATGPYHPIWTGRATDEEPLGLPKCCQPDAADKASVLEPGRPASAGNALKGRVPPGDSPPGNGSGPRHINDSPFGTLPGSAEPPLTAVRPEGSEPPGFPTSGPRRRPGCSRKNRTRSHCRLGQAGSGGGGTGDSEGSGALPSLTCSLTPLGLALVLWTVLGPC
Regarding B2, the Lingo-1 result in test [1] was “−”. Further, the MAG entry in test [2] is on record as “−”. The “ligand binding category” value in test [3] is “Differential binding”. Also, the OMgp entry in test [4] is “−”. In addition, in test [5], the Ng66 entry is listed as “+”. Further, the B4C-66 result in test [6] was “+”. For the same molecule, the B4C entry in test [7] is given as “+”.

B3: 95, 97, 122: human NgR1 mutant, listed residues mutated to alanine (protein)
chain: CPGACVCYNEPKVTTSCPQQGLQAVPVGIPAASQRIFLHGNRISHVPAASFRACRNLTILWLHSNVLAAIAAAAFTGLALLEQLDLSDNAQLRSVAPATFHGLGRLHTLHLDRCGLQELGPGLFRGLAALQYLYLQDNALQALPDDTFRDLGNLTHLFLHGNRISSVPERAFRGLHSLDRLLLHQNRVAHVHPHAFRDLGRLMTLYLFANNLSALPTEALAPLRALQYLRLNDNPWVCDCRARPLWAWLQKFRGSSSEVPCSLPQRLAGRDLKRLAANDLQGCAVATGPYHPIWTGRATDEEPLGLPKCCQPDAADKASVLEPGRPASAGNALKGRVPPGDSPPGNGSGPRHINDSPFGTLPGSAEPPLTAVRPEGSEPPGFPTSGPRRRPGCSRKNRTRSHCRLGQAGSGGGGTGDSEGSGALPSLTCSLTPLGLALVLWTVLGPC
Turning to B3, the Lingo-1 entry in test [1] was “−”. Also, in test [2], the MAG result is “tr”. Further, the “ligand binding category” value in test [3] is given as “Differential binding”. Besides, the OMgp entry in test [4] was “tr”. In addition, the Ng66 entry in test [5] is “+”. Besides, in test [6], the B4C-66 result was “+”. Moreover, the B4C result in test [7] is “+”.

B4: 117, 119, 120: human NgR1 mutant, listed residues mutated to alanine (protein)
chain: CPGACVCYNEPKVTTSCPQQGLQAVPVGIPAASQRIFLHGNRISHVPAASFRACRNLTILWLHSNVLARIDAAAFTGLALLEQLDLSDNAALAAVDPATFHGLGRLHTLHLDRCGLQELGPGLFRGLAALQYLYLQDNALQALPDDTFRDLGNLTHLFLHGNRISSVPERAFRGLHSLDRLLLHQNRVAHVHPHAFRDLGRLMTLYLFANNLSALPTEALAPLRALQYLRLNDNPWVCDCRARPLWAWLQKFRGSSSEVPCSLPQRLAGRDLKRLAANDLQGCAVATGPYHPIWTGRATDEEPLGLPKCCQPDAADKASVLEPGRPASAGNALKGRVPPGDSPPGNGSGPRHINDSPFGTLPGSAEPPLTAVRPEGSEPPGFPTSGPRRRPGCSRKNRTRSHCRLGQAGSGGGGTGDSEGSGALPSLTCSLTPLGLALVLWTVLGPC
In the case of B4, in test [1], the Lingo-1 result is listed as “tr”. Moreover, the MAG result in test [2] is “−”. The “ligand binding category” value in test [3] is recorded as “Differential binding”. Moreover, the OMgp entry in test [4] is recorded as “tr”. For the same molecule, the Ng66 entry in test [5] is given as “++”. Also, the B4C-66 result in test [6] is reported as “++”. In addition, in test [7], the B4C entry is on record as “++”.
